Measured values published in US7407783B2, “Fructosylamine oxidase” (priority 2002, dated 2008).
Entries after “also recorded” stand apart in the source; their conditions may differ.

What was measured:
FAO-Q2 = experiment: Substrate specificity of FAO-Q2 (FAO activity, rate method, H2O2 colorimetry); assay type: biochemical, Fusarium proliferatum; conditions: for Relative activity (%) FAO-Q2: activity of FAO-Q2 on the substrate, FV = 100
Experimental: (§1) Titration of enzyme can be performed by a method known in the art (e.g., kinetic method), for example, that described in Example 1 (3). In this method, hydrogen peroxide generated by the reaction of an FAO with a glycated amino acid or peptide is measured on the basis of absorbance (505 nm) of quinone pigment produced in the presence of hydrogen peroxide. The amount (μmole) of hydrogen peroxide generated per minute is calculated on the basis of molar absorptivity (5.16×10^3 M^−1 cm^−1) of quinone pigment and the resultant numerical value is taken as a unit (U) of enzyme activity.
(§2) FAO activity of the crude enzyme solution was determined by the aforementioned rate method. The time-course of generation of hydrogen peroxide in the reaction mixture below was measured by a colorimetric method, and FAO activity was evaluated.
(§3) A mixture (total 3 ml) except for the enzyme solution was equilibrated at 30° C. After adding the enzyme solution, the time-course of absorbance at 505 nm was measured. The amount (μmole) of hydrogen peroxide generated per minute was calculated on the basis of molar absorptivity (5.16×10^3 M^−1 cm^−1) of quinone pigment produced, and the resultant numerical value was taken as a unit(U) of enzyme activity. As a result, a strain having FAO was obtained.
The substrate specificity of the enzymes (FAO-Q1, FAO-Q2) contained in 2 fractions separated in (1), 3) above was determined. The FAO activity was measured using the respective two fractions as an enzyme solution according to the method described in Example 1(3). As a substrate, FV, FVH, FVHL, FVL, FVLS and FZL were used.

FAO-Q1 = FAO-Q1 (Fusarium proliferatum, UniProt A0A1L7VP54); experiment: Substrate specificity of FAO-Q1 (FAO activity, rate method, H2O2 colorimetry); assay type: biochemical
Experimental: as §1, §2
as §3, with “As a result, a strain having FAO was obtained.” left out
The substrate specificity of the enzymes (FAO-Q1, FAO-Q2) contained in 2 fractions separated in (1), 3) above was determined. […]

[1] = test system: O=C(N[C@@H](CCCCNCC1(O)OC[C@@H](O)[C@@H](O)[C@@H]1O)C(=O)O)OCc1ccccc1; experiment: cells, lysate or membranes named; conditions: other: substrate FV or FZL; 30.0 °C
Excerpt: Michaelis constant for respective substrates can be determined by measuring the initial reaction rate in the process for determination of titer as described above while keeping the conditions regarding enzyme concentration, pH, temperature, and the like constant and changing only the concentration of substrate.

[2] = test system: CC(C)[C@H](NCC1(O)OC[C@@H](O)[C@@H](O)[C@@H]1O)C(=O)O; experiment: cells, lysate or membranes named; conditions: other: substrate FV or FZL; 30.0 °C
[3] = Determination of optimum pH of the enzyme reaction; assay type: biochemical, Fusarium proliferatum; conditions: pH 3.5-10.0 tested, at 30° C.
Experimental: Enzyme reaction was conducted under different pH conditions between 3.5 and 10.0 according to the method for determination of activity as described above.
The buffers used were 100 mM acetate buffer at pH range of 3.5-6.0, 100 mM potassium phosphate buffer at pH range of 6.0-8.0, 100 mM Tris-HCl buffer (pH range of 7.0-9.0) and 100 mM glycin-NaOH buffer at pH range of 9.0-10.0.

[4] = FAO activity of Resource Q fractions using FV as a substrate; assay type: biochemical, Fusarium proliferatum; conditions: Resource Q fraction
Experimental: as §2, §3
The ammonium sulfate fraction after dialysis was subjected to chromatography under the following conditions.
Measurement of activity was performed in a similar manner to that described in Example 1 (3). FAOs contained in these fractions are herein referred to as “FAO-Q1” and “FAO-Q2”.

[5] = Determination of optimum temperature for stability of enzyme; assay type: physicochemical, Fusarium proliferatum; conditions: incubated in 0.1 M Tris-HCl buffer (pH 8.0) at 30-65° C. for 10 minutes
Experimental: Temperature conditions for the enzyme were determined by incubating FAO-Q1 or FAO-Q2 in 0.1 M Tris-HCl buffer (pH 8.0) at a temperature between 30 and 65° C. for 10 minutes, and measuring the activity under normal conditions.

Row | Molecule | Activity of FAO-Q2 on the substrate (in words) (FAO-Q2) | Relative activity (%) FAO-Q2 (FAO-Q2) | Optimum pH for enzyme reaction [3] | specific activity(U/mg) [4] | Optimum temperature for stability of enzyme [5] | further results
1 | O=C(N[C@@H](CCCCNCC1(O)OC[C@@H](O)[C@@H](O)[C@@H]1O)C(=O)O)OCc1ccccc1 (stereo partly shown) [FZL] | inactive and not |  |  |  |  | Activity of FAO-Q1 on the substrate (in words) (FAO-Q1): almost equally active; also recorded: almost the same activity; Relative activity (%) FAO-Q1 (FAO-Q1; activity of FAO-Q1 on the substrate, FV = 100): 108%
2 | FAO-Q1 (Fusarium proliferatum ET1) |  |  |  |  |  | Km [1]: 560 µM; Km [2]: 620 µM
3 | fructosyl valine-histidine-leucine (VHL) [FVHL] | active | 0.6% |  |  |  | 
4 | fructosyl valine-leucine-serine (VLS) [FVLS] |  | 3.3% |  |  |  | 
5 | FAO-Q2: fructosylamine oxidase from Fusarium proliferatum GL2-1, Resource Q fraction Q2; amino acid sequence SEQ ID NO: 6 (protein, listed as Fusarium proliferatum) MARTVAPLNKDSGILIVGGGTWGCSTALHLARRGYTNVTVLDVNRIPSPISAGHDVNKLSNRLGTSDSKGDDEDSIWKALTYAAAQGWLHDPIFQPFCHNTGAVMAGSTPKSIKQLVEDEIGDDIDQYTPLNTAEDFRRTMPERILTGDFLGWKGFYKPRGSGWVHARKAMKAAFEESQRLGVKFITGSPEGKVESLVFEAGDVKGAKTADGKEHRADRTILSAGASAEFSLDFENQIRPTAWTLGHIQMTAEETKLYKELPPLFNINQGFFMEPDEDLHQLKMCDEHPGYCNWVDKPGSKYPQSIPFAKYQVPIEAERRMKQFLKDIMPQLADRPLVHARICWCADTQDRMFLITYHPRHPSLVIASGDCGTGYKHITSIGKFISDCMEGTLEERFAKFWRWRPEKFTEFWGKDPLDRFGADDKIMDLPKSDAEGWTDIQNDK |  |  | about 7.0 | 0.067 U/mg | 30-40 °C | Optimum pH for enzyme reaction ([3]; listed as FAO-O2): 7
6 | FAO-Q1: fructosylamine oxidase from Fusarium proliferatum GL2-1, Resource Q fraction Q1; amino acid sequence SEQ ID NO: 4 (protein, listed as Fusarium proliferatum) MAGPPSSILIVGSGVFGLGTAWALAKRSHFSNTSITVVDDCAGQFPPEDAASVDSSRIVRADYSDPYYAALAAEAQKEWRKQGDHEVGGQGRYSESGFVLCASETPEDFKLKKSGMDYTKESAKNVELIAKETGLPVDKIQKLESTKALQEFLGTDGYPGDWGYLNGNSGWADAGEGMKWLYKQAQATGRIHFVNGKVTELVTEGDRVIGAKLSDSKILKADVVMVAAGAWSGSLVDLRGRTEATGHAVAYMDITPEEQKRLDNFPVVLNLSTGLFLIPPRNNVLKAARHTFGYINPVKINNALPPSPNDKREPFIASQPYTSRNDSSNPLTVEADKDLRRALTDLCPIRGLETRPWKEARICWYSDTRDGEWLIDYHPGWKGLFVATGDSGHGFKFLPNLGEKIVDVMQGQGGKLGEKWRWKEIQNDGVGRETNGVYTGLVTEDGSRGGRPLVLCDELEKGRALIGNTKAKL |  |  | about 7.5 | 0.3 U/mg | 30-40 °C | Optimum pH for enzyme reaction ([3]; listed as FAO-O 1): 7.5
